Read-outs that look alike come from different tables or passages of the source.
B1: bispecific, monovalent 1+2 anti-FAP, anti-4-1BB lipocalin huIgG1 PGLALA antigen binding molecule (bispecific antibody)
heavy 1: DKTHTCPPCPAPEAAGGPSVFLFPPKPKDTLMISRTPEVTCVVVDVSHEDPEVKFNWYVDGVEVHNAKTKPREEQYNSTYRVVSVLTVLHQDWLNGKEYKCKVSNKALGAPIEKTISKAKGQPREPQVCTLPPSRDELTKNQVSLSCAVKGFYPSDIAVEWESNGQPENNYKTTPPVLDSDGSFFLVSKLTVDKSRWQQGNVFSCSVMHEALHNHYTQKSLSLSPGGGGGSGGGGSGGGGSQDSTSDLIPAPPLSKVPLQQNFQDNQFHGKWYVVGQAGNIRLREDKDPIKMMATIYELKEDKSYDVTMVKFDDKKCMYDIWTFVPGSQPGEFTLGKIKSFPGHTSSLVRVVSTNYNQHAMVFFKFVFQNREEFYITLYGRTKELTSELKENFIRFSKSLGLPENHIVFPVPIDQCIDG
heavy 2: not shown
light: EIVLTQSPGTLSLSPGERATLSCRASQSVTSSYLAWYQQKPGQAPRLLINVGSRRATGIPDRFSGSGSGTDFTLTISRLEPEDFAVYYCQQGIMLPPTFGQGTKVEIKRTVAAPSVFIFPPSDEQLKSGTASVVCLLNNFYPREAKVQWKVDNALQSGNSQESVTEQDSKDSTYSLSSTLTLSKADYEKHKVYACEVTHQGLSSPVTKSFNRGEC
notes: also called FAP (4B9) x 4-1BB lipocalin huIgG1 PG LALA 1+2; 1+2 FAP(4B9) x 4-1BB lipocalin huIgG1 PGLALA
B2: bispecific, monovalent 1+2 anti-HER2, anti-4-1BB lipocalin huIgG1 PGLALA antigen binding molecule (bispecific antibody)
heavy 1: B1 heavy 1
heavy 2: not shown
light: not shown
notes: also called HER2 (TRAS) x 4-1BB lipocalin huIgG1 PG LALA 1+2; 1+2 HER2 x 4-1BB lipocalin huIgG1 PGLALA
B3: bispecific, bivalent 2+2 anti-FAP, anti-4-1BB lipocalin huIgG1 PGLALA antigen binding molecule (bispecific antibody)
heavy: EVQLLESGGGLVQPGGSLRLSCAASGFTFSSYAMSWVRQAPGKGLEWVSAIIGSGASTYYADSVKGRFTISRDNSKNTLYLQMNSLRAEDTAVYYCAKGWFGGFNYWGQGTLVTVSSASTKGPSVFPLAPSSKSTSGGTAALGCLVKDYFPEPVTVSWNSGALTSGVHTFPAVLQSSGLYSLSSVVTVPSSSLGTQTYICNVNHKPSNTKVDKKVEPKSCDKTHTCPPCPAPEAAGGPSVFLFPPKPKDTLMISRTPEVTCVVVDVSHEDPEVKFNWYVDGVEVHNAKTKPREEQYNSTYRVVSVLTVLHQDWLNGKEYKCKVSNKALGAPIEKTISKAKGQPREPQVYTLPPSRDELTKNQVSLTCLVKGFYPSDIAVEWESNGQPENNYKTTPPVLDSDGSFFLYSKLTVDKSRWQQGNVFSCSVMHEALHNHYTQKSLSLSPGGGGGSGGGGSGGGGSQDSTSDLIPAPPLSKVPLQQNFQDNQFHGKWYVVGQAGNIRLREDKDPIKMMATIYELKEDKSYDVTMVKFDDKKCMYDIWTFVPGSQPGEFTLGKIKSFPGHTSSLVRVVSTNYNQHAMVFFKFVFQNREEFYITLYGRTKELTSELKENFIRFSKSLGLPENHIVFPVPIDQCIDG
light: B1 light
notes: also called FAP (4B9) x 4-1BB lipocalin huIgG1 PG LALA 2+2; 2+2 FAP(4B9) x 4-1BB lipocalin huIgG1 PGLALA
B4: 2+2 FAP(4B9) x 4-1BB lipocalin huIgG4 SP molecule (bispecific antibody)
heavy: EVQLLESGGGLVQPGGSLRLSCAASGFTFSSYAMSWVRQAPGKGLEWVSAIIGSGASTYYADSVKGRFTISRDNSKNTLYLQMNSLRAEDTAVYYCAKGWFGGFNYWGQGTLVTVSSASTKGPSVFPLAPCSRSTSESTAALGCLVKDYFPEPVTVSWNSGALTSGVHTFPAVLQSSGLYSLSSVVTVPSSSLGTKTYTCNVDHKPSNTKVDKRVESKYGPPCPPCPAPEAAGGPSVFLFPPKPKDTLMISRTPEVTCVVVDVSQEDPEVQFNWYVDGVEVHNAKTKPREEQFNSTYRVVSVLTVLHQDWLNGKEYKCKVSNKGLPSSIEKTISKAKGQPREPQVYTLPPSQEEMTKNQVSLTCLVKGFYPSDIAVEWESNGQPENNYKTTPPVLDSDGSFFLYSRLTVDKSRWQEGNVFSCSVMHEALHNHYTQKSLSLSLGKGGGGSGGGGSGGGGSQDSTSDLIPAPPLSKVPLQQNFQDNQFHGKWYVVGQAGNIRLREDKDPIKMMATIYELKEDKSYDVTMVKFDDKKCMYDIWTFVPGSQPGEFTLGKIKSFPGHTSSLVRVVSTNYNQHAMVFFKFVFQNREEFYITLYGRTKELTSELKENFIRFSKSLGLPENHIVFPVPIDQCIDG
light: B1 light
notes: Comparison molecule; also called FAP (4B9) x 4-1BB lipocalin huIgG4 SP 2+2; FAP (4B9) anti-4-1BB lipocalin huIgG4 SP 2+2
B5: FAP (4B9) huIgG1 PG LALA antibody (antibody, V domains shown)
VH: EVQLLESGGGLVQPGGSLRLSCAASGFTFSSYAMSWVRQAPGKGLEWVSAIIGSGASTYYADSVKGRFTISRDNSKNTLYLQMNSLRAEDTAVYYCAKGWFGGFNYWGQGTLVTVSS
VL: EIVLTQSPGTLSLSPGERATLSCRASQSVTSSYLAWYQQKPGQAPRLLINVGSRRATGIPDRFSGSGSGTDFTLTISRLEPEDFAVYYCQQGIMLPPTFGQGTKVEIK
notes: the control is a human IgG1 with P329G, L234A, L235A (PG LALA)

Columns and labels:
[1] = biological target: T1, human 4-1BB (CD137), cell-surface-expressed on Jurkat-hu4-1BB-NFkB-luc2 reporter cell line (human, UniProt Q07011 24-186); test: cell-based or functional assay; design: AUC of activation curve, NFκB-luciferase in Jurkat-hu4-1BB-NFκB-luc2, crosslinking by WM-266-4 cells: unit not given beside the values
[2] = biological target: T2, human Fibroblast Activation Protein (FAP), cell-surface-expressed on NIH/3T3-huFAP clone 19 cells (human, UniProt Q12884 1-760); test: flow cytometry, NIH/3T3-huFAP clone 19 cells, PE anti-human Fc detection
T2 construct: also called FAP-expressing cells
Experimental: (§1) Plates were incubated for 30 minutes at 4° C. and washed once with 200 μL, 4° C. cold DPBS buffer. […] Cells were washed twice with 200 μL 4° C. DPBS buffer and then resuspended in 50 μL/well DPBS containing 1% Formaldehyde for fixation. The same or the next day cells were resuspended in 100 μL FACS-buffer and acquired using MACSQuant Analyzer 10 (Miltenyi Biotec) or Canto II (BD).

[3] = biological target: T2, human Fibroblast Activation Protein …; test: flow cytometry, NIH/3T3-huFAP clone 19 cells, gMFI curve
Experimental: as §1

[4] = biological target: T1, human 4-1BB (CD137), …; test: cell-based or functional assay
[5] = biological target: T1, human 4-1BB (CD137), …; test: flow cytometry, Jurkat-hu4-1BB-NFkB-luc2 cells, PE anti-human Fc detection
Experimental: (§2) For binding to cell-surface-expressed human 4-1BB (CD137) Jurkat-hu4-1BB-NFκB-luc2 reporter cell line (Promega, Germany) was used. […] Plates were incubated for 30 minutes at 4° C. and washed once with 200 μL 4° C. cold DPBS buffer. […] Cells were washed twice with 200 μL 4° C. FACS buffer and then resuspended in 50 μL/well DPBS containing 1% Formaldehyde for fixation. The same or the next day cells were resuspended in 100 μL FACS-buffer and acquired using MACSQuant Analyzer 10 (Miltenyi Biotec) or Cantoll (BD).

[6] = biological target: T1, human 4-1BB (CD137), …; test: flow cytometry, Jurkat-hu4-1BB-NFkB-luc2 cells, gMFI curve
Experimental: as §2

[7] = biological target: T1, human 4-1BB (CD137), …; test: cell-based or functional assay; design: unit not given beside the values
[8] = biological target: T1, human 4-1BB (CD137), …; test: flow cytometry, Jurkat-hu4-1BB-NFkB-luc2 cells, gMFI curve; remark: listed apart in the source
Experimental: (§3) For binding to cell-surface-expressed human 4-1BB (CD137) Jurkat-hu4-1BB-NFkB-luc2 reporter cell line (Promega, Germany) was used. […] Plates were incubated for 30 minutes at 4° C. and washed once with 200 μL 4° C. cold DPBS buffer. […] Cells were washed twice with 200 μL 4° C. FACS buffer and then resuspended in 50 DPBS containing 1% Formaldehyde for fixation.

[9] = biological target: T1, human 4-1BB (CD137), …; test: cell-based or functional assay; remark: listed apart in the source
[10] = biological target: T1, human 4-1BB (CD137), …; test: flow cytometry, Jurkat-hu4-1BB-NFkB-luc2 cells, PE anti-human Fc detection; remark: listed apart in the source
Experimental: as §3

| Binder | AUC of activation curve, NFκB-luciferase in Jurkat-hu4-1BB-NFκB-luc2, crosslinking by NIH/3T3-huFAP clone 19 cells [1] | AUC of activation curve, NFκB-luciferase in Jurkat-hu4-1BB-NFκB-luc2, crosslinking by WM-266-4 cells [1] | EC50 [2] | Area under the curve (AUC) of binding curve [3] | EC50 of activation curve, NFκB-luciferase in Jurkat-hu4-1BB-NFκB-luc2, crosslinking by NIH/3T3-huFAP clone 19 cells [4] | EC50 of activation curve, NFκB-luciferase in Jurkat-hu4-1BB-NFκB-luc2, crosslinking by WM-266-4 cells [4] | EC50 [5] | Area under the curve (AUC) of binding curve [6] | AUC of activation curve, NFκB-luciferase in Jurkat-hu4-1BB-NFκB-luc2, crosslinking by KPL4 cells [7] | AUC of activation curve, NFκB-luciferase in Jurkat-hu4-1BB-NFκB-luc2, crosslinking by NCI-N87 cells [7] | AUC of activation curve, NFκB-luciferase in Jurkat-hu4-1BB-NFκB-luc2, crosslinking by SK-Br3 cells [7] | Area under the curve (AUC) of binding curve [8] | EC50 of activation curve, NFκB-luciferase in Jurkat-hu4-1BB-NFκB-luc2, crosslinking by KPL4 cells [9] | EC50 of activation curve, NFκB-luciferase in Jurkat-hu4-1BB-NFκB-luc2, crosslinking by NCI-N87 cells [9] | EC50 of activation curve, NFκB-luciferase in Jurkat-hu4-1BB-NFκB-luc2, crosslinking by SK-Br3 cells [9] | EC50 [10] |
| --- | --- | --- | --- | --- | --- | --- | --- | --- | --- | --- | --- | --- | --- | --- | --- | --- |
| B1 | 93200 | 37400 | 2.88 nM | 32500 | 0.02 nM | 0.07 nM | 2.39 nM | 681 | – | – | – | – | – | – | – | – |
| B2 | – | – | – | – | – | – | – | – | 11400 | 12100 | 3960 | 2100 | 0.19 nM | 0.15 nM | 0.33 nM | 6.95 nM |
| B3 | 65500 | 20400 | 2.01 nM | 28800 | 0.04 nM | 0.02 nM | 2.09 nM | 746 | – | – | – | – | – | – | – | – |
| B4 | 55200 | 11700 | 1.19 nM | 21000 | 0.12 nM | 0.02 nM | 1.72 nM | 694 | – | – | – | – | – | – | – | – |
| B5 | 521 | 384 | 1.59 nM | 30400 | – | – | – | 75 | – | – | – | – | – | – | – | – |

— patent publication US20220025069A1 (Hoffmann-La Roche, published 2022)
